Measurements published in the supplement of paper PMC10065799, “High-throughput profiling of sequence recognition by tyrosine kinases and SH2 domains using bacterial peptide display” (eLife, 2023).

Test system: AncSZ
Test: phosphorylation enrichment, bacterial display (enrichment ratio); higher = better substrate or ligand; peptides without Tyr show the background
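Also: 11-residue human phosphosite peptides and single-mutation variants displayed on the E. coli surface, counted by deep sequencing, each peptide's frequency after selection divided by its frequency in the unselected input library; frequency after pTyr selection over input frequency; kinase dosed for 20-30% of maximal phosphorylation in three min.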

Sequence | phosphorylation enrichment
CTTIHYNSMCN [TP53_Y234_Y236S] | 0.849
FEHVGYTTLNR [CHN1_Y148_YF] | 0.654
VGTKRYRAPEV [ACVRL1_Y375_M376R] | 0.443
PVQAASQKVVA [HBB_Y131_Y131S] | 0.482
LEITWYPFDME [RIPOR2_Y316_V320M] | 1.85
SPFEVYVDKSQ [FLNA_Y373] | 1.08
FLRTGYSIPFG [TGM1_Y370_V372I_YF] | 0.844
NTGLDYIKFTW [HRH1_Y386] | 1.37
GKFFQYDTWNQ [IGF2_Y116_K120N] | 1.06
FGISGYLVDSV [MAP2K3_Y214] | 0.982
YEDTLYTVLHR [UNC13D_Y61_A59T] | 2.9
GRRNTCFASIA [ACADM_Y352_Y352C_YF] | 0.665
HLLRIYYDITD [MMP27_Y307_W304L] | 1.46
HLAQRYLIWEC [SCN5A_Y694_R689H] | 1.62
EYHRLYEEYTR [PIK3R1_Y467_D464H] | 1.45
REGKIYEFNQV [ZNF665_Y162_H157R_YF] | 0.795
AQADIYKADFQ [IKBKG_Y308] | 0.856
QRPGLYDRPGA [HNRNPH2_Y210_P209L] | 0.737
DVMDLYKTLRG [NR3C1_Y30_F29L] | 0.773
CVGGFYGGCNE [CTSC_Y352_Y347C] | 0.81
RGDSAYHSQRH [ERBB3_Y1132] | 0.51
KSIQLYDTPFE [SHB_Y297_G293S_YF] | 1.18
PPTYRYERGSR [INPPL1_Y663] | 0.509
INASGYRIGPA [ACSM1_Y477] | 0.479
SVTCTDSPALN [TP53_Y126_Y126D] | 0.975
SNVEQYQAMVT [TPR_Y965] | 0.754
ETLLFYGFRRS [POR_Y564_C566Y_YF] | 0.871
QLAPQYTYTQG [FLNA_Y1761_A1764T] | 0.828
HHIDFYKETTN [FGFR1_Y654_K656E_YF] | 1.07

Target: FGFR3 (UniProt P22607)
Sequence (P22607 whole entry, looked up): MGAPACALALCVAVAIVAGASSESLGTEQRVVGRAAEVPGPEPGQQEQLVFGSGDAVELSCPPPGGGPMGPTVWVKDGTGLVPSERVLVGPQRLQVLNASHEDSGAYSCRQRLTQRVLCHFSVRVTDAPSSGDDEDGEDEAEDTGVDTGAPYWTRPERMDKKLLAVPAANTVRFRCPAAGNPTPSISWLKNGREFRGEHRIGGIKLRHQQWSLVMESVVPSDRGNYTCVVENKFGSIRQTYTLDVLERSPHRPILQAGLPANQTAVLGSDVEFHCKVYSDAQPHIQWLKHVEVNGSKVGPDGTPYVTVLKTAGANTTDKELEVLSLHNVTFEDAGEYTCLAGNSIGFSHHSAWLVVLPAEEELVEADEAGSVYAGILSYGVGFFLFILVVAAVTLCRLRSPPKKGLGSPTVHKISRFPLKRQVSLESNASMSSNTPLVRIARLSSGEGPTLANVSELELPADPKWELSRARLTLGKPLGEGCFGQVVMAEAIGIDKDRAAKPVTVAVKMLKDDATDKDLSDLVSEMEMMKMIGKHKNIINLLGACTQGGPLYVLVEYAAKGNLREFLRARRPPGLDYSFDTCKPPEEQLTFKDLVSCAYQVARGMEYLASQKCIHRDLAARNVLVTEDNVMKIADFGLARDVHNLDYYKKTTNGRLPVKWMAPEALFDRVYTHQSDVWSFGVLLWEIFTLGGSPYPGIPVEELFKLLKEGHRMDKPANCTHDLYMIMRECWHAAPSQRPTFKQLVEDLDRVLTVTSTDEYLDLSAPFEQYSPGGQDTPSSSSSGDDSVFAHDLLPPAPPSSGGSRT
Test: as above

Sequence | phosphorylation enrichment
CTTIHYNSMCN [TP53_Y234_Y236S] | 0.627
FEHVGYTTLNR [CHN1_Y148_YF] | 0.458
VGTKRYRAPEV [ACVRL1_Y375_M376R] | 0.363
PVQAASQKVVA [HBB_Y131_Y131S] | 1.55
LEITWYPFDME [RIPOR2_Y316_V320M] | 1.48
SPFEVYVDKSQ [FLNA_Y373] | 0.726
FLRTGYSIPFG [TGM1_Y370_V372I_YF] | 0.769
NTGLDYIKFTW [HRH1_Y386] | 1.26
GKFFQYDTWNQ [IGF2_Y116_K120N] | 0.639
FGISGYLVDSV [MAP2K3_Y214] | 0.631
YEDTLYTVLHR [UNC13D_Y61_A59T] | 2.09
GRRNTCFASIA [ACADM_Y352_Y352C_YF] | 0.405
HLLRIYYDITD [MMP27_Y307_W304L] | 2.33
HLAQRYLIWEC [SCN5A_Y694_R689H] | 1.26
EYHRLYEEYTR [PIK3R1_Y467_D464H] | 1.61
REGKIYEFNQV [ZNF665_Y162_H157R_YF] | 0.886
AQADIYKADFQ [IKBKG_Y308] | 0.722
QRPGLYDRPGA [HNRNPH2_Y210_P209L] | 0.773
DVMDLYKTLRG [NR3C1_Y30_F29L] | 0.861
CVGGFYGGCNE [CTSC_Y352_Y347C] | 0.653
RGDSAYHSQRH [ERBB3_Y1132] | 0.427
KSIQLYDTPFE [SHB_Y297_G293S_YF] | 0.683
PPTYRYERGSR [INPPL1_Y663] | 0.419
INASGYRIGPA [ACSM1_Y477] | 0.367
SVTCTDSPALN [TP53_Y126_Y126D] | 0.805
SNVEQYQAMVT [TPR_Y965] | 0.541
ETLLFYGFRRS [POR_Y564_C566Y_YF] | 0.535
QLAPQYTYTQG [FLNA_Y1761_A1764T] | 0.768
HHIDFYKETTN [FGFR1_Y654_K656E_YF] | 1.14
